Where two headings read alike, the source gives them in different places.
B1: Trichoderma reesei pep2 (protein)
chain: MQPSFGSFLVTVLSASMAAGSVIPSTNANPGSFEIKRSANKAFTGRNGPLALARTYAKYGVEVPKTLVDAIQLVKSIQLAKRDSATVTATPDHDDIEYLVPVKIGTPPQTLNLDFDTGSSDLWVFSSDVDPTSSQGHDIYTPSKSTSSKKLEGASWNITYGDRSSSSGDVYHDIVSVGNLTVKSQAVESARNVSAQFTQGNNDGLVGLAFSSINTVKPTPQKTWYDNIVGSLDSPVFVADLRHDTPGSYHFGSIPSEASKAFYAPIDNSKGFWQFSTSSNISGQFNAVADTGTTLLLASDDLVKAYYAKVQGARVNVFLGGYVFNCTTQLPDFTFTVGEGNITVPGTLINYSEAGNGQCFGGIQPSGGLPFAIFGDIALKAAYVIFDSGNKQVGWAQKK
B2: Trichoderma reesei gap1 (protein)
chain: TVQSNWGGAILEGSGFTAASATVNVPRGGGGSNAAGSAWVGIDGASCQTAILQTGFDWYGDGTYDAWYEWYPEFAADFSGIDIRQGDQIAMSVVATSLTGGSATLENLSTGQKVTQNFNRVTAGSLCETSAEFIIEDFEECNSNGSNCQPVPFASFSPAITFSSATATRSGRSVSLSGAEITEVIVNNQDLTRCSVSGSSTLTCSYV
B3: Trichoderma reesei pep5 (protein)
chain: MKFHAAALTLACLASSASAGVAQPRADEVESAEQGKTFSLEQIPNERYKGNIPAAYISALAKYSPTIPDKIKHAIEINPDLHRKFSKLINAGNMTGTAVASPPPGADAEYVLPVKIGTPPQTLPLNLDTGSSDLWVISTDTYPPQVQGQTRYNVSASTTAQRLIGESWVIRYGDGSSANGIVYKDRVQIGNTFFNQQAVESAVNISNEISDDSFSSGLLGAASSAANTVRPDRQTTYLENIKSQLARPVFTANLKKGKPGNYNFGYINGSEYIGPIQYAAINPSSPLWEVSVSGYRVGSNDTKYVPRVWNAIADTGTTLLLVPNDIVSAYYAQVKGSTFSNDVGMMLVPCAATLPDFAFGLGNYRGVIPGSYINYGRMNKTYCYGGIQSSEDAPFAVLGDIALKAQFVVFDMGNKVVGFANKNTNV
B4: Trichoderma reesei pep3 (protein)
chain: MEAILQAQAKFRLDRGLQKITAVRNKNYKRHGPKSYVYLLNRFGFEPTKPGPYFQQHRIHQRGLAHPDFKAAVGGRVTRQKVLAKKVKEDGTVDAGGSKTGEVDAEDQQNDSEYLCEVTIGTPGQKLMLDFDTGSSDLWVFSTELSKHLQENHAIFDPKKSSTFKPLKDQTWQISYGDGSSASGTCGSDTVTLGGLSIKNQTIELASKLAPQFAQGTGDGLLGLAWPQINTVQTDGRPTPANTPVANMIQQDDIPSDAQLFTAAFYSERDENAESFYTFGYIDQDLVSASGQEIAWTDVDNSQGFWMFPSTKTTINGKDISQEGNTAIADTGTTLALVSDEVCEALYKAIPGAKYDDNQQGYVFPINTDASSLPELKVSVGNTQFVIQPEDLAFAPADDSNWYGGVQSRGSNPFDILGDVFLKSVYAIFDQGNQRFGAVPKIQAKQNLQPPQ

What was measured:
[1] = biological target: soybean trypsin inhibitor (SBTI) (UniProt P01070)
[2] = system: pepstatin A
[3] = biological target: pepstatin A; remark: listed apart in the source
[4] = biological target: LIP peptide

Sequence of UniProt P01070 (P01070 25-205): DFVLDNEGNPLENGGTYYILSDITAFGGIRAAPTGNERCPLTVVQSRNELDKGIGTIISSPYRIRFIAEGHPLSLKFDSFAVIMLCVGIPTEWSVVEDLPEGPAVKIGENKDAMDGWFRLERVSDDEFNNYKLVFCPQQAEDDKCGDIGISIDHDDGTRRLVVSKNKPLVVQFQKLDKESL

Molecule	casein digestion by the SIP purified fractions at pH 5.5 [3]	also measured
Trichoderma reesei slp2		casein digestion by the SIP purified fractions at pH 5.5 [1]: The SBTI and chymostatin were able to inhibit the SLP2 protease in the purified sample
Trichoderma reesei pep4		casein digestion by the SIP purified fractions at pH 5.5 [2]: a large portion of the SIP protease activity was inhibited by pepstatin A
B1	a large portion of the SIP protease activity was inhibited by pepstatin A	
B2		casein digestion by the SIP purified fractions at pH 5.5 [4]: inhibited the protease activity slightly less compared to SIP inhibitor
B3	a large portion of the SIP protease activity was inhibited by pepstatin A	
B4	a large portion of the SIP protease activity was inhibited by pepstatin A	

From patent US20220290165
